Reference: patent publication US20250011363A1, “OPTIMIZED SHORTENED PEPTIDE THAT BINDS TO ACETYLCHOLINE RECEPTOR, AND USE THEREOF” (SKINMED CO., LTD., priority 2021, published 2025)

Molecular target: acetylcholine receptor (Homo sapiens, UniProt P02708)
Experiment: SPR binding affinity (RU) of optimized 5mer/6mer/7mer peptides, Examples 6-7
Conditions: 6mer-1 Top sequence; SPR; peptides tested at 10 μM
Protocol: Based on the frequencies of occurrence of the top 7 amino acids from Table 7 in Example 5, 600 peptides comprising these amino acids (top combinations) and those comprising the 13 less frequently occurring amino acids (bottom combinations) were synthesized for each series of 5mer, 6mer-1, and 6mer-2. The binding affinity of each sequence for the acetylcholine receptor was measured using Surface Plasmon Resonance (SPR) analysis method. The peptides were tested at a concentration of 10 μM. Additionally, the average binding affinities of the top and bottom combinations in each series are depicted in FIGS. 5-7.
Representative peptides identified in Example 6, two in each library, including 5mers (73, 311) and 6mers-1 (43, 210) and 6mers-2 (136, 233), were compared with the pre-optimized 6mer, 5mer-ND, and Synake.

acetylcholine receptor, sequence (P02708 21-457): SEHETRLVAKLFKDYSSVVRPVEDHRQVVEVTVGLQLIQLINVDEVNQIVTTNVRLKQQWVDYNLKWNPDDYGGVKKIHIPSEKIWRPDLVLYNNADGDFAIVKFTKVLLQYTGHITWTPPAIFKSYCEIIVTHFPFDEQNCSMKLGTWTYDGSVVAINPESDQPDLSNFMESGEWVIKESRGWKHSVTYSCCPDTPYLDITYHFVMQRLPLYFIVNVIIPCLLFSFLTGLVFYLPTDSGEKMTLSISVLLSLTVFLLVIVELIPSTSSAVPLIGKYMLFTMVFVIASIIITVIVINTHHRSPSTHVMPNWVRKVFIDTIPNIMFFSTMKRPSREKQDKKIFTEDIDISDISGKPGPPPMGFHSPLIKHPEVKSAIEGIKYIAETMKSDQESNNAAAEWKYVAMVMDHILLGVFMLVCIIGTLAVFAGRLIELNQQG

Substance | Binding affinity
6mer-1-369 (KKWYRK) | 144 Ru
6mer-1-276 (RRVICK) | 128 Ru
6mer-1-311 (RRGYQK) | 127 Ru
6mer-1-314 (RRRILR) | 141 Ru
6mer-1-398 (KKQYYR) | 137 Ru
6mer-1-380 (KRLQLR) | 121 Ru
6mer-1-384 (RKVICK) | 148 Ru
6mer-1-359 (KRQFLR) | 131 Ru
6mer-1-358 (KRRYTR) | 124 Ru
6mer-1-295 (KRQRCR) | 148 Ru
6mer-1-320 (KRVQYR) | 121 Ru
6mer-1-323 (RRWLYR) | 149 Ru

Same assay, conditions: 6mer-2 Top sequence; SPR; peptides tested at 10 μM

Substance | Binding affinity
6mer-2-103 (RVVTKK) | 136 Ru
6mer-2-127 (RLYLRK) | 136 Ru
6mer-2-192 (RWFSKK) | 133 Ru
6mer-2-59 (RVLSRK) | 123 Ru
6mer-2-13 (RQYTRK) | 123 Ru
6mer-2-61 (RGFQRK) | 148 Ru
6mer-2-158 (RSFLRR) | 145 Ru

Same assay, conditions: SPR, Resonance Units; 5mer Bottom sequence (bottom combinations); peptides tested at 10 μM

Substance | Binding affinity
5mer-776 (RCDFR) | 17 Ru
5mer-916 (RCHER) | 12 Ru
5mer-643 (KHDGR) | 28 Ru
5mer-904 (KPDPK) | 23 Ru
5mer-649 (RYSFK) | 20 Ru
5mer-912 (KKMGR) | 16 Ru
5mer-650 (RPEDK) | 22 Ru
5mer-685 (RNDIK) | 21 Ru
5mer-1028 (RMAMR) | 28 Ru
5mer-632 (RFSHR) | 33 Ru
5mer-915 (KMTHR) | 28 Ru
5mer-934 (KMMMR) | 17 Ru
5mer-719 (KISER) | 21 Ru
5mer-921 (KKKFK) | 21 Ru

Same assay, conditions: SPR, Resonance Units; peptides tested at 10 μM; 6mer-1 Bottom sequence

Substance | Binding affinity
6mer-1-1194 (KKTHAK) | 22 Ru
6mer-1-1154 (RKCEKR) | 41 Ru
6mer-1-1144 (KKCMGR) | 25 Ru
6mer-1-1139 (KKMENR) | 36 Ru

Same assay, conditions: SPR, Resonance Units; peptides tested at 10 μM; 6mer-1 Bottom sequence (Table 11)

Substance | Binding affinity
6mer-1-715 (KRMMVK) | 18 Ru
6mer-1-610 (KKHHER) | 27 Ru
6mer-1-726 (KKHSMK) | 33 Ru
6mer-1-646 (RRCTGK) | 33 Ru
6mer-1-786 (KRIKEK) | 26 Ru

Same assay, conditions: SPR, Resonance Units; peptides tested at 10 μM; 6mer-2 Bottom sequence

Substance | Binding affinity
6mer-2-794 (KAEMRR) | 19 Ru
6mer-2-817 (KCNDKK) | 22 Ru
6mer-2-873 (KNWGRR) | 11 Ru
6mer-2-752 (KINWRR) | 29 Ru
6mer-2-760 (KIPVKK) | 15 Ru
6mer-2-859 (RMDFRK) | 21 Ru
6mer-2-603 (KFHARR) | 32 Ru
6mer-2-770 (KPNMKK) | 24 Ru
6mer-2-670 (RKWHKR) | 33 Ru

Same assay, conditions: SPR, Resonance Units; peptides tested at 10 μM; 6mer-2 Top sequence

Substance | Binding affinity
6mer-2-515 (RWYCRK) | 123 Ru
6mer-2-595 (KLRCKK) | 154 Ru
6mer-2-471 (KWISRR) | 136 Ru
6mer-2-525 (KWVRKK) | 145 Ru
6mer-2-483 (RRYLKK) | 121 Ru
6mer-2-459 (KLFSRK) | 139 Ru
6mer-2-463 (KLLTRR) | 124 Ru
6mer-2-524 (RGIQKR) | 128 Ru
6mer-2-598 (KVFRRR) | 146 Ru

Same assay, conditions: SPR, Resonance Units; peptides tested at 10 μM; 6mer-2 Top sequence (Table 12)

Substance | Binding affinity
6mer-2-223 (KQLTRR) | 142 Ru
6mer-2-242 (KSQRRR) | 135 Ru
6mer-2-350 (RGQTRK) | 148 Ru
6mer-2-222 (RVVYRK) | 127 Ru
6mer-2-386 (KWQSKR) | 136 Ru
6mer-2-279 (KSLQRK) | 148 Ru
6mer-2-273 (KLRQRR) | 131 Ru
6mer-2-369 (KVVRRR) | 145 Ru
6mer-2-240 (RRRCRK) | 142 Ru
6mer-2-257 (KRFCRK) | 144 Ru
6mer-2-394 (KLVLKR) | 141 Ru

Same assay, conditions: SPR, peptides at 10 μM; 6mer-2 Bottom sequence

Substance | Binding affinity
6mer-2-1012 (KASAKK) | 30 Ru
6mer-2-1025 (RCSHRR) | 39 Ru
